Assay results taken from patent US20240166594A1, “PHOTOCAGED CITRULLINE ANALOGS AND METHODS FOR SITE-SPECIFIC INCORPORATION OF CITRULLINE INTO PROTEINS” (University of Massachusetts, priority 2021, published 2024).
Several values for one entry are separate records, joined by “and”; a condition that tells them apart may be missing. Equal values may be shown once. Where a SMILES comes first, the peptide text is derived from it.

How the values were obtained:
R374Cit PAD4 = test: Thermal shift assay with GSK199, R374Cit PAD4; type: binding; conditions: GSK199 10 μM
Protocol: (§1) A 50 μL reaction mixture (EXPI293F lysate containing overexpressed wild-type PAD4 (1.5 mg/mL) or R374Cit mutant (2 mg/mL), 1×PBS and DMSO (1% final)) was heated at various temperatures (25, 40, 50, 60, 65, 70, 75, 85 and 90° C.) for 5 min followed by flash freezing with liquid nitrogen. The samples were thawed and the precipitated proteins were separated by centrifugation (15000 rpm, 30 min) at 4° C. 40 μL of the supernatant was mixed with 10 μL of 5×SDS-PAGE loading dye and the mixture was boiled at 95° C. for 10 min. The proteins were separated by SDS-PAGE using a 4-20% gradient gel and the soluble fractions of PAD4 were quantitated by western blot analysis using a rabbit polyclonal anti-PAD4 antibody. This assay was also performed separately in the presence of CaCl2 (1 mM final) and a PAD4-selective ligand, GSK199 (10 μM final). For these assays, the reaction mixture was incubated with CaCl2 or GSK199 at room temperature for 5 min before heating up at different temperatures. All the reactions were performed at least in duplicate.

WT PAD4 = target: T1, WT PAD4 (Homo sapiens, UniProt Q9UM07); test: Thermal shift assay with GSK199, wild-type PAD4; type: binding; conditions: GSK199 10 μM, EXPI293F lysate
T1 construct: FLAG (N); His tag (C); expressed in transfected cells; host or cells: EXPI293F
Protocol: as §1

[1] = Solubility of decaged peptide observed during SM70 decaging; type: physicochemical; conditions: decaged peptide from SM70; turbid even in 1:1 acetonitrile/PBS
Protocol: FIG. 10. (A) Decaging of SM70, a PAD4-derived peptide (residues 363-372 with SM60 at the 372 position. Prolines at 365 and 371 positions were replaced with W and A, respectively, and a lysine residue was added to the C-terminus for ease of synthesis.). (B) HPLC chromatogram of SM70 before and after 5 min of 365 nm irradiation. […] Even after performing the reaction in 1:1 acetonitrile/PBS, the solution became turbid upon the formation of the decaged peptide. Assay condition: 200 μM SM70, 2 mM DTT, 1:1 acetonitrile/PBS (pH 7.4). (C) ESI mass spectrum of the citrulline-containing peptide (decaged product).

HEK293T cells = test: Cytotoxicity of PAD4 expression in HEK293T cells (CellTiter-Blue); type: cell-based
Protocol: HEK293T cells were seeded (2×10^4 cells/well) on 96-well plate and were allowed to grow in DMEM (supplemented with 10% heat-inactivated fetal bovine serum, 100 units/mL penicillin, 100 μg/mL streptomycin) for 48 h. Cells were then transfected with appropriate plasmids (120 ng PAD4 plasmid and 80 ng pIDTSMART eRF1 E55D for each well) using Lipofectamine 2000 (500 ng for each well) in Opti-MEM medium (Gibco). After 5 h, the medium was changed to DMEM and DMSO (for WT PAD4) or SM60 (0.25, […] and 1 mM for R374Cit PAD4) was added. Cells were then allowed to grow at 37° C. for 48 h. Cell viability was measured before and after photodecaging (by UV treatment for 3 min) using CellTiter-Blue® (Promega) by following the manufacturer's protocol. Untransfected cells served as the control. All the experiments were performed in triplicate.

[2] = Michaelis-Menten kinetics of wild-type and mutant PAD4 (COLDER assay); type: biochemical; conditions: substrate BAEE, 10 mM CaCl2, pH 7.4, 37° C.
Protocol: PAD4 (50 nM final for wild-type, 75 nM final for R372Cit, and 100 nM final for R374Cit) was added to a pre-warmed (10 min, 37° C.) reaction mixture (60 μL final) containing various concentrations of BAEE (0, 0.5, 1, 2.5, 5 and 10 mM), CaCl2 (10 mM), TRIS-HCl (100 mM, pH 7.4), NaCl (50 mM) and DTT (2 mM). This mixture was incubated at 37° C. for 45 min (for wild-type), 90 min (for R374Cit) and 120 min (for R372Cit) followed by quenching with liquid nitrogen. The rate of citrulline formation at various BAEE concentrations was quantified with the COLDER assay. The rates were plotted against the BAEE concentration and were fit to the Michaelis-Menten equation using Graphpad Prism. All the reactions were performed at least in duplicate.

[3] = Calcium-dependence of wild-type PAD4 (COLDER assay); type: biochemical; conditions: 10 mM BAEE, pH 7.4, 37° C.
Protocol: PAD4Bac (purified from bacterial expression system) and PAD4Mam (purified from mammalian expression system) (6 μL of 0.5 μM stock, 50 nM final) were added to separate pre-warmed (10 min, 37° C.) reaction mixtures (60 μL final) containing BAEE (10 mM), various concentrations of CaCl2 (0, 0.25, 0.5, 1, 2.5, 5 and 10 mM), TRIS-HCl (100 mM, pH 7.4), NaCl (50 mM) and DTT (2 mM). This mixture was incubated at 37° C. for 45 min followed by flash freezing with liquid nitrogen. The production of citrulline at various concentration of CaCl2 by PAD4 was quantified with the COLDER assay. (Tanikawa, et al. 2012 Nat. Commun. 3, 676; Zhang, et al. 2012 Proc. Natl. Acad. Sci. USA 109, 13331-13336.)
The calcium-dependence of citrulline production by PAD4 was fit to the equation 2,
v=Vmax*[Ca^2+]^h/(K0.5^h+[Ca^2+]^h) (2)
using Graphpad Prism, where v is the velocity of the reaction, Vmax is the maximum velocity of the reaction, [Ca^2+] is the concentration of calcium, h is the hill slope and K0.5 is the calcium concentration that gives half-maximal velocity. All the reactions were performed at least in duplicate.

histone H3 = test: Histone H3 citrullination in live HEK293T cells (western blot); type: cell-based; conditions: calcium and ionomycin, 3 h
Protocol: HEK293T cells were seeded (4×10^5 cells/well) on 6-well plates and were allowed to grow in DMEM (supplemented with 10% heat-inactivated fetal bovine serum, 100 units/mL penicillin, 100 μg/mL streptomycin) for 48 h. Cells were then transfected with appropriate plasmids (3 μg PAD4 plasmid and 2 μg pIDTSMART eRF1 E55D for each well) using Lipofectamine 2000 (12.5 μg for each well) in Opti-MEM medium (Gibco). After 5 h, the medium was changed to DMEM and DMSO (for WT PAD4) or SM60 (1 mM for R374Cit PAD4) was added. Cells were then allowed to grow at 37° C. for 48 h. Cells were washed with serum-free DMEM (supplemented with 100 units/mL penicillin, […] streptomycin), resuspended in the same medium and were irradiated with 365 nm UV for 3 min. Then the cells were treated with CaCl2 (1 mM) and a combination of CaCl2 (1 mM) and ionomycin (5 μM) for 3 h at 37° C. After this, cells were lysed and the lysates were analyzed by Western blotting using anti-histone H3 citrulline (R2,8,17) and anti-histone H3 primary antibodies. PAD4 expression was quantified by using an anti-PAD4 primary antibody. Band intensities for citrullinated histone H3 were normalized against those for histone H3 and PAD4 using the following algorithm,
Normalized histone H3Cit=[H3Cit/(H3_33 PAD4)]×10^6
All the experiments were performed in triplicate.

[4] = Thermal shift assay, melting temperature of PAD4 in EXPI293F lysate; type: physicochemical; conditions: no ligand
Protocol: as §1

T1 sequence (Q9UM07 whole entry G112A): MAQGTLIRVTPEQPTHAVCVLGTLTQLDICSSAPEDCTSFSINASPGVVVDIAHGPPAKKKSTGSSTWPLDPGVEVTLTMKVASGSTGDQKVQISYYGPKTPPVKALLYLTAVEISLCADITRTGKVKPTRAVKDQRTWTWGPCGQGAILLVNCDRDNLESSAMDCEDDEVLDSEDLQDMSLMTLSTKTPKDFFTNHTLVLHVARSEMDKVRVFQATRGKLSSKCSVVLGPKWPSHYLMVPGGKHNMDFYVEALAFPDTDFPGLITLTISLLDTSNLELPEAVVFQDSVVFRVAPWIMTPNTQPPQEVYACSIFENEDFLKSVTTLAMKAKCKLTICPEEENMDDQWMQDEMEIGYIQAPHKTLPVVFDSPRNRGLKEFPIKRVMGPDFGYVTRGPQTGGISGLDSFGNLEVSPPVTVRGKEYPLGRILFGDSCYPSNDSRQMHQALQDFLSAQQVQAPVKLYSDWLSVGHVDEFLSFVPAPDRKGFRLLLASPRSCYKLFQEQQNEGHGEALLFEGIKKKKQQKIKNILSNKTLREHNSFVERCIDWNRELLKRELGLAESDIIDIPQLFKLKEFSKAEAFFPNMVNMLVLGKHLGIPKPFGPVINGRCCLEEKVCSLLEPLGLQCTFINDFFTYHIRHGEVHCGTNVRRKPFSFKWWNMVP

CCn1c(-c2nc3cc(C(=O)N4CCCC(N)C4)cc(OC)c3n2C)cc2cccnc21 (stereo not shown) [GSK199]
effect on Tm of R374Cit PAD4 (R374Cit PAD4; EXPI293F lysate): did not increase the Tm of the R374Cit mutant
binding to R374Cit mutant (R374Cit PAD4; inferred from thermal shift): binds poorly to the R374Cit mutant
effect on Tm of WT PAD4 (WT PAD4): increased the Tm of WT PAD4

CC(C)C[C@H](NC(=O)[C@@H](N)[C@@H](C)O)C(=O)N[C@@H](Cc1c[nH]c2ccccc12)C(=O)N[C@H](C(=O)N[C@H](C(=O)N[C@@H](Cc1ccccc1)C(=O)N[C@@H](CC(=O)O)C(=O)N[C@@H](CO)C(=O)N[C@@H](C)C(=O)N[C@@H](CCCNC(N)=O)C(=O)N[C@@H](CCCCN)C(=O)O)C(C)C)C(C)C [decaged product] (HELM PEPTIDE1{T.L.W.V.V.F.D.S.A.[Cit].K}$$$$V2.0)
solubility in aqueous buffer [1]: extremely low solubility in aqueous buffer

PAD4: Protein Arginine Deiminase 4 (WT and R374Cit) overexpressed in HEK293T cells
cytotoxicity of expression (HEK293T cells): does not cause any cytotoxicity

PAD4Bac: wild-type PAD4 purified from bacterial (E. coli) expression system
Km [2]: 700 ± 100 µM
kcat [2]: 3.4 ± 0.2 S^−1
K0.5 (Ca^2+ concentration for half-maximal activity) [3]: 0.9 mM and 0.9 ± 0.10 mM

PAD4Mam: wild-type PAD4 purified from mammalian expression system (HEK293T), N-terminal FLAG and C-terminal His tag
Km [2]: 1100 ± 200 µM
kcat [2]: 3.7 ± 0.1 S^−1
K0.5 (Ca^2+ concentration for half-maximal activity) [3]: 0.9 mM and 0.9 ± 0.05 mM

WT PAD4: wild-type Protein Arginine Deiminase 4
times more active than the R374Cit mutant for the citrullination of histone H3 (histone H3): 6 times
melting temperature (Tm) [4]: 62.9 °C
